Results published in the nanobody polyreactivity screen of Harvey et al. (2022).

Assay: yeast display, Sf9 membrane polyspecificity reagent, FACS + sequencing; frameworks hold sequencing errors
How it was run: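 Nanobodies from a synthetic yeast display library (Saccharomyces cerevisiae BJ5465), induced 36–48 hours with galactose, were stained 1 hour at 4 °C with 10% biotinylated, detergent-solubilized Sf9 membrane reagent, enriched on streptavidin microbeads, then FACS-sorted. Anti-HA (expression) and streptavidin (reagent binding) fluorescence set low and high (top ~1%) gates. Polyreactivity labels come from the gate of origin. Genes were colony-PCR amplified, MiSeq 2 × 250 sequenced and filtered by CDR length.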

## QVQLVESGGGLDQAGGSLRLSCAASGSIFTDNAMGWYRQAPGKERELVASITIAGSTKYADSVKGRFTISRDNAKKTVYLQMNSLKPEDTAVYYCNAEASDLHDYWGQGTQVTVSS
  polyreactivity (PSR sort gate): low polyreactivity

## QVQLVESGGGLVQAGGSLRLSCAASGGIFSWYDMGWYRQAPGKEREFVATITYSGGSTYYADSVKGRFTISRDNAKNTVYLQMNSLKPEDTAVYYCAAARYWYRRFDYWGQGTQVTVSS
  polyreactivity (PSR sort gate): high polyreactivity

## QVQLVESGGGLVQAGGSLRLSCAASGSTFNGYAMGWYRQAPGKERELVAAISSDGGSTYYADSVKGRFTISRDNAKNTVYLQMNSLKPEYTAVYYCAALVYVSGYGYYYWGQGTQVTVSS
  polyreactivity (PSR sort gate): high polyreactivity

## QVQLVESGGGLVQAGGSLRLSCAASGSIFRWYDMGWYRQAPGKERELVAVISKRGGSTYYADSVKGRFSISRDNAKNTVYLQMTSLKPEDTAVYSCAKRYERWQLARLDYWGQGTQVTVSS
  polyreactivity (PSR sort gate): high polyreactivity

## QVQLVESGGGLVQAGGRLRLSCAASGRTFPYYVMGWYRQAPGKERELVAVIRWRGGSTYYADSVKGRFTISRDNAKNTVYLQMNSLKPEDTAVYYCAARRHIVVATYDRRYDYWGQGTQVTVSS
  polyreactivity (PSR sort gate): low polyreactivity

## QVQLVESGGGLVQAGGSLRFSSPASGGTFFVNAMGWYRQAPGKERELVASITLSGGSSYYADSVKGRFTISRDNAKNTVYLQMNSLKPEDTAVYYCAKGWTRDNEREREDEYWGQGTQGTVSS
  polyreactivity (PSR sort gate): low polyreactivity

## QVQLVESGGGLVQAGGSLRLSSAASGFTFNANAMGWYRQAPGKERELVAVITRSGGRTYYADSVKGRFTISRDNAKNTVYLQMNSLKPEDTAVYYCAADIGYTYEYYYWGQGTQVTVSS
  polyreactivity (PSR sort gate): high polyreactivity

## QVQLVESGGGLVQAGGSLRLSCSASGSIFVGYAIGWYRQAPVKEMELDASISSGDDTYADSVKGRFTISRDNAKNSVYLQMNSLKPEDTAVYYCAKDSISVDCAYDYWVQGTQVTVSS
  polyreactivity (PSR sort gate): low polyreactivity

## QVQLVESAGGLGQAGGSLRLSSAASGITTRTYAMGWYRQARGNERELVAAISDSGDRTYYADSVKGRFTISRDNAKNTVYLQMNSLKPEETAVYYCAVHAPGPRCEYWGQGTQVTVSS
  polyreactivity (PSR sort gate): low polyreactivity

## QVQLVESGGGLVQAGGSLRLSCAASGIILGPYAMGWYRQAPGKERELVAAISWRGGSTYYADSVKGRFTISRDNAKNTVYLQMNSLKPEDTAVYYCATASRTSRTGWAGYYWGQGTQVTVSS
  polyreactivity (PSR sort gate): high polyreactivity

## QVQLVESWGGLVQAGGSLRLSCAASGITFLRNTMGWYRQAPGKERELVAAISRGGSTYYADSVKGRFTISRDNAKNTVFLQMKSLKPEDTAVYYCNAPSYVQATDYDYWGQGTQVTVSS
  polyreactivity (PSR sort gate): high polyreactivity

## QVQLVESGGGLVQAGGSLRLSCAASGSTFGYYAMGWYRQAPGKERELVAGITSGGSTYYADSVKGRFTISRDNAKNTVYLQMNSLKPEDTAVYYCAKPVRHYRGRYFKYDYWGQGTQVTVSS
  polyreactivity (PSR sort gate): high polyreactivity

## QVQLVESGGGLVQAGGSLRLSCAASGYTFYANAMGWYRQAPGKEREFVASITWSGGSTYYADSVKGRFTISRDNAKNTVYLQMNSLKPEDTAVYYCNTDLTYPYPNVEVLVYGFKLDYWGQGTQVTVSS
  polyreactivity (PSR sort gate): low polyreactivity

## QVQLVESGGGLVQAGGSLRLSCAASGYIFGWYTMGWYRQAPGKERELVAAISGGGRTYYADSVKGRFTISRDNAKNTVYLQMNSLKPEDTAVYYCNDYSSYIKYDYWGQGTQVTVSS
  polyreactivity (PSR sort gate): high polyreactivity

## QVQLVESGGGLVQAGGSLRLSCAASGSTFGDNAMGSYRQAPGKERELVAAISSGGGSTYYADSVKGRFTISRDNAKNTVYLQMNSLKPEDTAVYYCAADVTLTLYRYILDYWGQGTQVTVSS
  polyreactivity (PSR sort gate): low polyreactivity

## QVQLVESGGGLVQAGGSLRLSCAASGSIFYAYAMGWYRQAPGKERELVAGINTRGGSTYYADSVKGRFTISRDNAKNTVYLQMNSLKPEDTAVYYCNARTLTVLEFDYWGQGTQVTVSS
  polyreactivity (PSR sort gate): low polyreactivity

## QVQLVESGGGLVQAGCSLRLSCAASGGTFYVNAMGCYRQAPGKDRELVAGIRESGASTYYADSVKGRFTISLDNAKNTVYLQMNSLKPEDTAVYYCAVDGPYPAASQSEVGYDYWGQGTQVTVSS
  polyreactivity (PSR sort gate): low polyreactivity

## QVQLVESGGGLVQAGGSLRLSCAASGSIFASNTMGWYRQAPGKERELVAAISFRGGRTYYADSVKGRFTISRDNAKNTVYLQMNSLKPEDTAVYYCNAAYGRYPRGGYWGQGTQVTVSS
  polyreactivity (PSR sort gate): high polyreactivity

## QVQLVESGGGLVQAGGSLRLSCAASGSTFPRNAMGWYRQAPGKERELVATITSSGGGTYYADSVKGRFTISRDNAKNTVYLQMNSLKPEDTAVYYCNAAGPAGDAFDYWGQGTQVTVSS
  polyreactivity (PSR sort gate): low polyreactivity

## QVQLVESGGGLVQAGGSLLLRCAASGSIFPWNTMGWNRQAPGKERELVARISTSGASTYYADSVKGRFTISRDNAKNTVYLQMNSRKPEDTAVYYGAARDWSHRPRGYDYWGQGTQVTVSS
  polyreactivity (PSR sort gate): high polyreactivity

## QVQLVESGGGLVQAGGSLRLSCAASGRIYAYYPMGWYRQAPGKERELVAAISRGGGSTSYADSVKGRFTISRDNAKNTVYLQMNSLKPEDTAVYYCAADTRSYLVFTRYFRAYRRYDYWGQGTQVTVSS
  polyreactivity (PSR sort gate): low polyreactivity

## QVQLVESGGGLVQAGGSLRLSCAASGSTFGLYVMGWYRQAPGKERELVATITRSGGSTYADSVKGRFTISRDNAKNTVYLQMNSLKPEDTAVYYCNADYPKPVYYSYWHQEFEYWGQGTQVTVSS
  polyreactivity (PSR sort gate): low polyreactivity

## QDQLVESGGGLVQAGGSLRLSCAASGSIFGVYAMGWYRQAPGKERELVAVISFNSGSTNYADSVKGRFTISRDNAKNTVYLQMNSLKPEDTAVYYCNSDAWHETQVSGYSWGQGTQVTVSS
  polyreactivity (PSR sort gate): low polyreactivity

## QVQLVESGGGLVQAGGSLRLSCAASGRTFLINAMGWYRQAPGKERELVAAITQSGGSTYYADSVKGRFTISRDNAKNTVYLQMNSLKPEDTAVYYCNAQSWYIVPYDYWGQGTQVTVSS
  polyreactivity (PSR sort gate): low polyreactivity

## QVQLVESGGGLVQAGGSLRLSCAASGSTFARNTMGWYRHAPGKERELVAVITRGDSTYYADSVKGRFTISRDNAKNTVYLQMNSLKPEDTAGYYCNAYFRYAYPSKMDYWVQGTQVTVSS
  polyreactivity (PSR sort gate): low polyreactivity

## QVQLVESGGGLVQAGGSLRLSCAASGRTFGKYAMGWYRQAPGKERELVATISLSGGSTYYADSVKGRFTISRDNAKNTVYLQMNSLKPEDTAVYYCAARVYTYYYDLHKRYYWGQGTQVTVSS
  polyreactivity (PSR sort gate): high polyreactivity

## QVQLVESGGGLVQAGGSLRLSCAASGRTFYYNGMGWYRQAPGKERELVATITNGGSTNYADSVKGRFTISRDNAKITVYLQMNSLKPEETAVYYCAKTLASDCYDYWGQGTQVTVSS
  polyreactivity (PSR sort gate): low polyreactivity

## QVQLGESGGGLVQAGGSLRLSCAASGSILTPYSMGWYRQAPGKERELDAAITFRGGSTYYADSVKGRFTISRDNAKNTVYLQMNSLKPEDTAVYYCAAGWYWSYWDPYDYWGQGTQVTVSS
  polyreactivity (PSR sort gate): high polyreactivity

## QVQHVESGGGLVQAGGSLRLSCAASGRTFISNAMGWYRQAPGKERELVATINSGGSTNYADSVKGRFTISRDNAKNTVYLQMNSLKPEDTAVYYCARRVRYKHYDYWGQGTQLTVSS
  polyreactivity (PSR sort gate): high polyreactivity

## QVQLVESGGGLVPAGGSLRLSCAASGSTFAKYAMGWYRQAPGKERELVASIRLSGGSTYYADSVKGRFTISRDHAQNTVYLQMNSLKPEDTAVYYCNKQFATFYYGFHYYYWGQGTQVTVSS
  polyreactivity (PSR sort gate): low polyreactivity

## QFQIVESGGGLVQAGGSLRLSCAASGGTFVSYAMGWYRQAPGKERELVAAITYSGGSTYYADSVKGRFTISRDNAKNTVYLQMNSLKPEDTAVYYCAAAKFSYFSYCPRGKVKYEYWGQGTQVTVSS
  polyreactivity (PSR sort gate): low polyreactivity

## QVQLVESAGGLVQAGGSLRLSCSASGSTFSSNGMGWYRKAPGKERELVAAITSVGSTNYADSVKGRFTISRDNAKNTVYLQMNSLKPEDTAVYYCNAERTAYGGGDYWGQGTQVTVSS
  polyreactivity (PSR sort gate): low polyreactivity

## QVQLVESGGGLVQAGGSLRLSCAASGITFPAYAMGWYRQAPGKERELVAAISRRGGSTYYADSVKGRFTISRDYAKNTVYLQMNSLKPEDTAVYYCNADIKQRSDRYDYWGQGTQVTVSS
  polyreactivity (PSR sort gate): high polyreactivity

## QVQLVESGGGLVQAGGSLRLSCAASGIIFEPNAMGWYRQAPGKERELVAAIDSGGITYYADSVKGRFTISRDNAKNTVYLQMNSLKPEDTAVYYCAAEAVVVTKYRYWTYGLYDYWGQGTQVTVSS
  polyreactivity (PSR sort gate): high polyreactivity

## QVQLVESGGGLVQAGGSLRLSWAASGSTFRLYAMGWYRQAPGKERELVAAITWSGGSTYYADSVKGRFTISRDNAKNTVYLQMNSLKPEDTAVYYCAAHRIGYYLRVSYRGKYDHWGQGTQVTVSS
  polyreactivity (PSR sort gate): low polyreactivity

## QVQLVESGAGLVQAGGRLRISCAASGSTFDGNTMGWYRQAPGKERELVAAISGSGGSTYYADSVKGRFTISRDNAKNTVYLQMNSLKPEDTAVYYCAADFRVGRYDYWGQGTQVTVSS
  polyreactivity (PSR sort gate): high polyreactivity

## QVQLVESGVGLVQAGGSLRLSCAASVRIFLFYAMGGYRQAPVKERELVAAITSGGSTYYADSVKGRFTMSRDNAKNTVYLQMNSLKPEDTAVYYCANYYWGQGTQVTVSS
  polyreactivity (PSR sort gate): low polyreactivity

## QVQLVESGGGLVQAGGSLRLSCAASGLTFRWYAMGWYRQAPGKERELVAAISWSGGSTYYADSVKGRFTISRDNAKNTVYLQMNSLKPEDTAVDYCAASYYADRSKAYDYWGQGTQLTVSS
  polyreactivity (PSR sort gate): high polyreactivity

## QVQLVESGGGLVQAGGSLRLSCAASGSIFRRNAMGWYRQAPGKDRELVAAITTRGSRTTYADSVKGRFTISRDNAKNTVYLQMNSMKPEDTAVYYCAARQHFSYSFHVAYDYWGQGTQVTVSS
  polyreactivity (PSR sort gate): high polyreactivity

## QVQLVESGGGLVQAGGSLRLSCAASGNILASNGMGLYRQAPGKERELVAAITYSGGSTYYADSVKGRFTISRDNAKNTVYLQMNSLKPEDTAVYDCAARYYYGRRYDYWGQGTQVTVSS
  polyreactivity (PSR sort gate): low polyreactivity

## QVQREESGGGLVQAGGSLRLSCAASGITFKWYAMGWYRQAPGKEREFVAIISTRGGSTYYADSVKGRFTISRDNAKNTVYLQMNSLKPVDTAVYYCNAVRSRVVHRRGDFDYWGQGTQVTVSS
  polyreactivity (PSR sort gate): high polyreactivity

## QVQLVESGGGLVQAGGSLRLSCAASGSIFTPYAMGWYRQEPGKERELVAAISRSGGSTYYADSVKGRFTISRDNAKNTVYLQMNSLKPEDTAVYYCAVVVYDIYGYESDYWGQGTQVTVSS
  polyreactivity (PSR sort gate): low polyreactivity

## QVQLVESGGGLVQTGGSLRLSCAASGRIFRYYDMGWYRQAPGKEREFVAAITRSGAITYYADSVKGRFTISRDNAKNTVYLQMNSLKPEDTAVYYCFAVRHYALYAGRPYDYWGQGTQVTVSS
  polyreactivity (PSR sort gate): low polyreactivity
